Reference: publication PMC8348266, “Intrinsically disordered electronegative clusters improve stability and binding specificity of RNA-binding proteins”

How the values were obtained:
Nop15 WT (1xENC) = molecular target: T1, Nop15 WT (1xENC) (Saccharomyces cerevisiae, UniProt P53927 40-191); assay: fluorescence polarization; 150 mM NaCl; Nop15 FP: 10 nM RNA/DNA, 20 mM Tris-HCl pH 7.5, 0.02% Tween 20, 150 or 50 mM NaCl; SRSF3 FP: 10 mM MES pH 5.5, 50 mM Arg/Glu, 0.1 mM TCEP, 0.02% Tween 20; incubated 37 °C 30 min then 25 °C 20 min, read at RT; conditions: protein: recombinant, tags: N-terminal SUMO tag (pSMT3) cleaved with Ulp1, label: 5' fluorescein
T1 sequence: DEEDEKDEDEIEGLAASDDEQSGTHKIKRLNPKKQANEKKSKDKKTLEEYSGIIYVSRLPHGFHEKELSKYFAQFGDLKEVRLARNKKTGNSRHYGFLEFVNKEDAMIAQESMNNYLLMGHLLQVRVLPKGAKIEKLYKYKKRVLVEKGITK

Nop15 2xENC [1] = molecular target: T2, Nop15 2xENC (Saccharomyces cerevisiae, UniProt P53927 39-49+39-191, internal_change); assay: as above; conditions: protein: recombinant; tags: N-terminal SUMO tag (pSMT3) cleaved with Ulp1; label: 5' fluorescein; hairpin with 8 bp stem and 9-nt single-stranded region
T2 sequence: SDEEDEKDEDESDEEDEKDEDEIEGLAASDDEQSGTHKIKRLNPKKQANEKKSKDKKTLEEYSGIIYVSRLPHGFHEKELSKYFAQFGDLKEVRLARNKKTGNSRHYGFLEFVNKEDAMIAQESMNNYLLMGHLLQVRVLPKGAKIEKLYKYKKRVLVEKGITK

Nop15 no-linker [2] = molecular target: T3, Nop15 no-linker (Saccharomyces cerevisiae, UniProt P53927 40-191, del60-76); assay: as above; conditions: protein: recombinant, tags: N-terminal SUMO tag (pSMT3) cleaved with Ulp1, label: 5' fluorescein
T3 sequence: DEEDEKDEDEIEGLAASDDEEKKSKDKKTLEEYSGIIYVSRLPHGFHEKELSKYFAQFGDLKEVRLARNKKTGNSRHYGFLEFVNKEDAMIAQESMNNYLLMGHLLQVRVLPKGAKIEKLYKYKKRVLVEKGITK

Nop15 no-ENC [3] = molecular target: T4, Nop15 no-ENC (Saccharomyces cerevisiae, UniProt P53927 =SGGSSGKSGSG+50-191, internal_change); assay: as above; conditions: protein: recombinant, tags: N-terminal SUMO tag (pSMT3) cleaved with Ulp1, label: 5' fluorescein
T4 sequence: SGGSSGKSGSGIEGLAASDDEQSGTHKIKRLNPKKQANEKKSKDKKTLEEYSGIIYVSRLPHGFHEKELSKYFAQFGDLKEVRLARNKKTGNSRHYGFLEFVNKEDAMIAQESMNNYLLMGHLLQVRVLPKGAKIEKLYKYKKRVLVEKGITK

Nop15 no-ENC [4] = molecular target: T4, Nop15 no-ENC; assay: fluorescence polarization; 50 mM NaCl; Nop15 FP: 10 nM RNA/DNA, 20 mM Tris-HCl pH 7.5, 0.02% Tween 20, 150 or 50 mM NaCl; SRSF3 FP: 10 mM MES pH 5.5, 50 mM Arg/Glu, 0.1 mM TCEP, 0.02% Tween 20; incubated 37 °C 30 min then 25 °C 20 min, read at RT; conditions: protein: recombinant; tags: N-terminal SUMO tag (pSMT3) cleaved with Ulp1; label: 5' fluorescein; single strand
Nop15 2xENC [5] = molecular target: T2, Nop15 2xENC; assay: fluorescence polarization; ND, too weak for detection; Nop15 FP: 10 nM RNA/DNA, 20 mM Tris-HCl pH 7.5, 0.02% Tween 20, 150 or 50 mM NaCl; SRSF3 FP: 10 mM MES pH 5.5, 50 mM Arg/Glu, 0.1 mM TCEP, 0.02% Tween 20; incubated 37 °C 30 min then 25 °C 20 min, read at RT; conditions: protein: recombinant; tags: N-terminal SUMO tag (pSMT3) cleaved with Ulp1; label: 5' fluorescein; single strand
Nop15 no-linker [6] = molecular target: T3, Nop15 no-linker; assay: as above; conditions: protein: recombinant; tags: N-terminal SUMO tag (pSMT3) cleaved with Ulp1; label: 5' fluorescein; single strand
[7] = hairpin with 8 bp stem and 9-nt single-stranded region

UGAGUGAUACUCUUUGGAGUUAACUUGAAAUUGCU (structured_RNA) [ITS2 III.A 26-60]
Kd (Nop15 WT (1xENC); [7]): 215 ± 34 nM
Kd (Nop15 2xENC [1]): 1870 ± 270 nM
Kd (Nop15 no-linker [2]; [7]): 583 ± 90 nM
Kd (Nop15 no-ENC [3]; [7]): 173 ± 32 nM

AGAGAGAGAGUCUCUCUCUC (structured_RNA) [nonspecific stem-loop RNA]
Kd (Nop15 WT (1xENC); hairpin, 8 bp stem): 945 ± 65 nM
Kd (Nop15 no-linker [2]; hairpin, 8 bp stem): 14100 ± 1400 nM
Kd (Nop15 no-ENC [3]; hairpin, 8 bp stem): 244 ± 18 nM

UUCAGAGCA (ssRNA) [nonspecific ssRNA]
Kd (Nop15 no-ENC [4]): 427 ± 98 nM
binding result (Nop15 2xENC [5]): no binding
binding result (Nop15 no-linker [6]): no binding

AGAGAGAGA (ssDNA) [nonspecific ssDNA]
Kd (Nop15 no-ENC [4]): 1160 ± 150 nM
binding result (Nop15 2xENC [5]): no binding
binding result (Nop15 no-linker [6]): no binding
